According to the Immune Epitope Database (IEDB):
pKd: −log10 of the molar value.

Assays:
[1] = molecular target: HLA-A*03:01; experiment: IEDB peptide-MHC binding, purified MHC/competitive/radioactivity; filed as Kd, often an IC50 or EC50 that approximates it; ≥ and ≤ were set here for values at or beyond the usual limits of such assays; settings: source organism: Vaccinia virus WR
[2] = molecular target: HLA-A*11:01; experiment: as above; settings: source organism: Vaccinia virus WR
[3] = molecular target: HLA-A*29:02; experiment: as above
[4] = molecular target: HLA-A*31:01; experiment: as above; settings: source organism: Vaccinia virus WR
[5] = molecular target: HLA-A*33:01; experiment: as above; settings: source organism: Vaccinia virus WR
[6] = molecular target: HLA-A*68:01; experiment: as above; settings: source organism: Vaccinia virus WR
[7] = molecular target: HLA-B*15:01; experiment: IEDB peptide-MHC binding, purified MHC/competitive/fluorescence; filed as Kd, often an IC50 or EC50 that approximates it; ≥ and ≤ were set here for values at or beyond the usual limits of such assays
[8] = molecular target: HLA-B*53:01; experiment: IEDB peptide-MHC binding, purified MHC/competitive/radioactivity; filed as Kd, often an IC50 or EC50 that approximates it; ≥ and ≤ were set here for values at or beyond the usual limits of such assays; settings: source organism: Dengue virus 4 Philippines/H241/1956
[9] = molecular target: HLA-B*46:01; experiment: IEDB peptide-MHC binding, purified MHC/competitive/fluorescence; filed as Kd, often an IC50 or EC50 that approximates it; ≥ and ≤ were set here for values at or beyond the usual limits of such assays; settings: source organism: Influenza A virus
[10] = molecular target: HLA-A*01:01; experiment: IEDB peptide-MHC binding, purified MHC/competitive/radioactivity; filed as Kd, often an IC50 or EC50 that approximates it; ≥ and ≤ were set here for values at or beyond the usual limits of such assays
[11] = molecular target: HLA-A*23:01; experiment: as above
[12] = molecular target: HLA-A*24:02; experiment: as above
[13] = molecular target: HLA-A*26:01; experiment: as above
[14] = molecular target: HLA-A*30:02; experiment: as above
[15] = molecular target: HLA-B*15:01; experiment: as above
[16] = molecular target: HLA-B*40:01; experiment: as above; settings: source organism: Dengue virus 2 Jamaica/1409/1983
[17] = molecular target: HLA-B*44:02; experiment: as above; settings: source organism: Dengue virus 2 Jamaica/1409/1983
[18] = molecular target: HLA-B*44:03; experiment: as above; settings: source organism: Dengue virus 2 Jamaica/1409/1983
[19] = molecular target: HLA-A*30:01; experiment: as above; settings: source organism: Dengue virus 3 Martinique/1243/1999
[20] = source organism: Vaccinia virus WR
[21] = source organism: Lymphocytic choriomeningitis virus (strain Armstrong)
[22] = source organism: SARS coronavirus Tor2
[23] = source organism: Mammarenavirus machupoense
[24] = source organism: Dengue virus 2 Jamaica/1409/1983
[25] = source organism: Dengue virus 3 Martinique/1243/1999

FIESSICLDY
pKd [1]: 5.53 | pKd [2]: 5.41 | pKd [3, 20]: ≤ 4.39 | pKd [4]: 5.00 | pKd [5]: 5.25 | pKd [6]: 6.02

FLCDDTITY
pKd ([7]; source organism: West Nile virus): 6.53

FPQSNSPIE
pKd [8]: 6.61

FQNVNKITY
pKd ([7]; source organism: Influenza A virus): 6.81 | pKd [9]: 5.52

FQPQNGQFI
pKd [10, 21]: ≤ 4.11 | pKd [11, 21]: ≤ 4.69 | pKd [12, 21]: 5.90 | pKd [13, 21]: ≤ 4.11 | pKd [3, 21]: ≤ 4.10 | pKd [14, 21]: ≤ 4.11

FYLCFLAFLL
pKd [10, 22]: ≤ 4.28 | pKd [11, 22]: 10.17 | pKd [12, 22]: 7.87 | pKd [13, 22]: ≤ 4.16 | pKd [3, 22]: 7.12 | pKd [14, 22]: ≤ 4.07

GECIKTCVF
pKd [15, 20]: 6.94

GEHKKLAEAI
pKd [16]: 7.27

GERSRCYSVY
pKd [10, 23]: ≤ 4.15 | pKd [11, 23]: ≤ 4.31 | pKd [12, 23]: ≤ 4.15 | pKd [13, 23]: ≤ 4.16 | pKd [3, 23]: ≤ 4.15 | pKd [14, 23]: 5.35

GTIMVSEHF
pKd [15, 20]: 7.24

GVPLLAIGCY
pKd [13, 24]: 6.89 | pKd [14, 24]: 5.47

HEWMTTEDM
pKd [16]: 6.42 | pKd [17]: 5.71 | pKd [18]: 5.82

HTSEHGGRAY
pKd [10, 25]: 5.99 | pKd [13, 25]: 6.79 | pKd [14, 25]: ≤ 4.36 | pKd [15, 25]: 6.84

IFFASFYYI
pKd [10, 22]: 5.89 | pKd [11, 22]: 8.19 | pKd [12, 22]: 7.91 | pKd [13, 22]: 5.74 | pKd [3, 22]: 7.55 | pKd [14, 22]: 5.29

ISQHNHRPGY
pKd [10, 25]: 4.82 | pKd [19]: 7.91 | pKd [14, 25]: 7.00
